Earlier results, collected in US20010028895A1, “Methods of treating alzheimer's disease” (priority 2000, published 2001).

Tests used:
[1] = among the eight 22-mer domains of apo A-I
[2] = among the eight 22-mer domains of apo A-I; remark: listed apart in the source
[3] = among the eight 22-mer domains of apo A-I; remark: listed apart in the source
[4] = among the eight 22-mer domains of apo A-I; remark: listed apart in the source

| Substance | exclusion pressure for penetration into egg yolk phosphatidylcholine monolayer [1] | partition coefficient into POPC liposomes [2] | clarifying multilamellar vesicles of DMPC [3] | reduction in the enthalpy of the gel-to-liquid crystalline phase transition of DMPC MLVs [4] |
| --- | --- | --- | --- | --- |
| 44-65: synthesized N-terminal 22-mer amphipathic domain of human apo A-I, residues 44-65 (LKLLDNWDSVTSTFSKLREQLG; UniProt P02647 68-89, looked up, fragment) | highest exclusion pressure | highest partition coefficient | effective | greatest reduction |
| 220-241: synthesized C-terminal 22-mer amphipathic domain of human apo A-I, residues 220-241 (PVLESFKVSFLSALEEYTKKLN; UniProt P02647 244-265, looked up, fragment) | highest exclusion pressure | highest partition coefficient | effective | greatest reduction |
